One assay deals with HLA-B*40:01. In words: IEDB peptide-MHC binding, purified MHC/competitive/radioactivity; filed as Kd, often an IC50 or EC50 that approximates it; ≥ and ≤ were set here for values at or beyond the usual limits of such assays.
Another assay addresses HLA-B*44:03. Described as above.
A further assay concerns the target HLA-B*44:02. The description is as above.
The target of the next assay is HLA-B*45:01. The assay is described as above.
The next assay deals with HLA-B*40:02. Described as above.
Assay [1] addresses HLA-B*18:01. Described as above.
Assay [2] has as its target HLA-A*03:01. In words: IEDB peptide-MHC binding, purified MHC/competitive/fluorescence; filed as Kd, often an IC50 or EC50 that approximates it; ≥ and ≤ were set here for values at or beyond the usual limits of such assays.
A further assay has as its target HLA-B*15:01. Described as above.
For a further assay, the target named is HLA-B*27:03. The assay is described as above. The note with it: source organism: Reston ebolavirus.
In another assay the target is HLA-A*26:01. The assay is described as above. Particulars: source organism: Reston ebolavirus.
The target of a further assay is HLA-B*46:01. Described as above. The note with it: source organism: Reston ebolavirus.
The target of the next assay is HLA-B*39:01. The assay is described as above. Particulars: source organism: Reston ebolavirus.
Assay [3] concerns the target HLA-B*51:01. The assay is described as above. Particulars: source organism: Reston ebolavirus.
A further assay deals with HLA-A*69:01. The description is as above. The note with it: source organism: Reston ebolavirus.
In assay [4] the target is HLA-A*02:01. The description is as above. Particulars: source organism: Reston ebolavirus.
A further assay addresses HLA-B*57:01. The assay is described as above. The note with it: source organism: Reston ebolavirus.
Assay [5] has as its target HLA-B*18:01. Described as above. The note with it: source organism: Reston ebolavirus.
Assay [6] deals with HLA-A*03:01. In words: IEDB peptide-MHC binding, purified MHC/direct/fluorescence; filed as Kd, often an IC50 or EC50 that approximates it; ≥ and ≤ were set here for values at or beyond the usual limits of such assays. The note with it: source organism: Reston ebolavirus - Reston.
In a further assay the target is HLA-A*33:01. The experiment in a line: IEDB peptide-MHC binding, purified MHC/competitive/radioactivity; filed as Kd, often an IC50 or EC50 that approximates it; ≥ and ≤ were set here for values at or beyond the usual limits of such assays.
A further assay has as its target HLA-A*68:01. The description is as above.
The next assay concerns the target HLA-B*35:01. Described as above.
A further assay deals with HLA-A*68:02. The assay is described as above.
A further assay deals with HLA-B*54:01. The assay is described as above.
The target of assay [7] is HLA-B*51:01. The assay is described as above.
For assay [8], the target named is HLA-A*03:01. Described as above.
Another assay concerns the target HLA-A*02:02. Described as above.
The next assay has as its target HLA-A*31:01. The assay is described as above.
Another assay addresses HLA-B*07:02. The assay is described as above.
Another assay concerns the target HLA-B*53:01. Described as above.
The target of a further assay is HLA-A*02:06. The description is as above.
The target of another assay is HLA-A*11:01. The assay is described as above.
A further assay addresses HLA-A*02:03. The assay is described as above.
Another assay concerns the target HLA-A*01:01. The assay is described as above. Particulars: source organism: Hepacivirus hominis.
The target of assay [9] is HLA-A*02:01. The description is as above. Particulars: source organism: Hepacivirus hominis.
The next assay deals with HLA-B*08:01. The assay is described as above. The note with it: source organism: Hepacivirus hominis.
Setting [10] is: source organism: Mammarenavirus guanaritoense.
The mark [11] stands for this setting: source organism: SARS coronavirus Tor2.
Where [12] appears, read: source organism: Mammarenavirus machupoense.
[13] abbreviates: source organism: Vaccinia virus Copenhagen.
Setting [14] is: source organism: Giardia lamblia ATCC 50803.
The mark [15] stands for this setting: source organism: Mammarenavirus lassaense.
The mark [16] stands for this setting: source organism: Lymphocytic choriomeningitis virus (strain Armstrong).
[17] abbreviates: source organism: Shigella flexneri 5 str. 8401.
Setting [18] is: source organism: Triticum aestivum.
The mark [19] stands for this setting: source organism: Hepacivirus hominis.
The mark [20] stands for this setting: source organism: Mammarenavirus juninense.

Some results are limits rather than exact numbers.

By Kd is commonly meant the free concentration of one partner at which half of the binding sites on the other are occupied at equilibrium, for simple one-to-one binding. For the sequence ADSLDFTQV, the Kd is not below 64900 nM with HLA-B*40:01 (setting [10]); not below 33300 nM in the assay with HLA-B*44:03 (setting [10]); 12600 nM in the assay with HLA-B*44:02 (setting [10]); 6120 nM with HLA-B*45:01 (setting [10]); 5850 nM with HLA-B*40:02 (setting [10]); not below 66500 nM in the assay with HLA-B*18:01 [1] (setting [10]).
As for AEIRASANLA, the Kd in the assay with HLA-B*40:01 (setting [11]) worked out at 202 nM; in the assay with HLA-B*44:03 (setting [11]) it was 98.6 nM; with HLA-B*44:02 (setting [11]), 80.1 nM; in the assay with HLA-B*45:01 (setting [11]), 4.63 nM; with HLA-B*40:02 (setting [11]), 2250 nM; with HLA-B*18:01 [1] (setting [11]), 8130 nM.
For the sequence ALTSAMLDR, in the assay with HLA-A*03:01 [2] (source organism: Yersinia pestis Antiqua), the Kd worked out at 38.1 nM.
As to ALYEENALK, the Kd with HLA-B*15:01 (source organism: Reston ebolavirus), in the assay with HLA-B*27:03, with HLA-A*26:01, in the assay with HLA-B*46:01, in the assay with HLA-B*39:01 and in the assay with HLA-B*51:01 [3] was not below 20000 nM each time. Further, the Kd in the assay with HLA-A*69:01 was not below 20000 nM; with HLA-A*02:01 [4], not below 20000 nM; with HLA-B*57:01 it was not below 20000 nM; with HLA-B*18:01 [5] it was not below 20000 nM; with HLA-A*03:01 [6], 1840 nM.
Regarding EDIAMGYVV, the Kd in the assay with HLA-B*40:01 (setting [12]) is not below 45300 nM; with HLA-B*44:03 (setting [12]) it was not below 38400 nM; with HLA-B*44:02 (setting [12]), 10300 nM; with HLA-B*45:01 (setting [12]), 2260 nM; in the assay with HLA-B*40:02 (setting [12]), 69.8 nM; with HLA-B*18:01 [1] (setting [12]), 1500 nM.
As to LILSCIFAFI, the Kd is 1860 nM in the assay with HLA-A*33:01 (setting [13]); 658 nM with HLA-A*68:01 (setting [13]); not below 36600 nM in the assay with HLA-B*35:01 (setting [13]); 17.5 nM with HLA-A*68:02 (setting [13]); 1520 nM with HLA-B*54:01 (setting [13]); 17200 nM with HLA-B*51:01 [7] (setting [13]). For the same sequence, the Kd in the assay with HLA-A*03:01 [8] (setting [13]) is 947 nM; in the assay with HLA-A*02:02 (setting [13]) it was 5.22 nM; with HLA-A*31:01 (setting [13]) it was 254 nM; with HLA-B*07:02 (setting [13]), not below 69600 nM; in the assay with HLA-B*53:01 (setting [13]), 1840 nM; in the assay with HLA-A*02:06 (setting [13]), 42.5 nM. The Kd in the assay with HLA-A*11:01 (setting [13]) was determined as 5710 nM; with HLA-A*02:03 (setting [13]) it was 19.9 nM.
In turn, LMLASSAGH yielded a Kd in the assay with HLA-A*03:01 [2] (setting [14]) of 559 nM.
On the same count and under the same terms, to LMLASSAGK belongs 7.8 nM.
On to MPKDGLKVL, for which the Kd with HLA-B*35:01 (setting [15]) was 421 nM; with HLA-B*54:01 (setting [15]), 96.5 nM; in the assay with HLA-B*51:01 [7] (setting [15]) it was 6530 nM; in the assay with HLA-B*07:02 (setting [15]), 802 nM; in the assay with HLA-B*53:01 (setting [15]) it was 2320 nM.
MPSLTMACM: the Kd amounted to 5.44 nM with HLA-B*35:01 (setting [16]); 1290 nM with HLA-B*54:01 (setting [16]); 881 nM with HLA-B*51:01 [7] (setting [16]); 112 nM with HLA-B*07:02 (setting [16]); 2160 nM in the assay with HLA-B*53:01 (setting [16]).
On to NELQTLPSL, for which the Kd in the assay with HLA-B*15:01 (setting [17]) and with HLA-A*03:01 [2] (setting [17]) was not below 20000 nM in each case.
Consider QPQLPYPQPQL, for which the Kd with HLA-B*35:01 (setting [18]) was not below 40700 nM; with HLA-B*54:01 (setting [18]) it was not below 63700 nM; with HLA-B*51:01 [7] (setting [18]) it was 353 nM; in the assay with HLA-B*07:02 (setting [18]) it was 9630 nM; in the assay with HLA-B*53:01 (setting [18]), not below 63700 nM.
Regarding RDWAHNSL, the Kd in the assay with HLA-B*40:01 (setting [19]) was not below 88900 nM; with HLA-A*01:01 it was 1800 nM; in the assay with HLA-A*33:01 (setting [19]) it was not below 78400 nM; with HLA-A*68:01 (setting [19]), not below 87900 nM; in the assay with HLA-B*44:03 (setting [19]), not below 87200 nM; with HLA-B*35:01 (setting [19]), not below 87800 nM. In addition, the Kd with HLA-A*68:02 (setting [19]) was not below 69800 nM; with HLA-B*54:01 (setting [19]) it was not below 87700 nM; with HLA-B*51:01 [7] (setting [19]), not below 87300 nM; in the assay with HLA-A*03:01 [8] (setting [19]) it was not below 87300 nM; with HLA-A*02:02 (setting [19]), not below 70000 nM; in the assay with HLA-A*31:01 (setting [19]), not below 67100 nM. The Kd with HLA-B*44:02 (setting [19]) was not below 75400 nM; with HLA-B*07:02 (setting [19]), 5680 nM; with HLA-B*53:01 (setting [19]) it was not below 87700 nM; with HLA-A*02:01 [9] it was not below 69400 nM; with HLA-A*02:06 (setting [19]) it was not below 55700 nM; with HLA-B*40:02 (setting [19]), not below 89500 nM. The Kd with HLA-A*11:01 (setting [19]) was not below 87000 nM; with HLA-B*18:01 [1] (setting [19]), not below 88600 nM; with HLA-B*08:01 it was not below 83400 nM; in the assay with HLA-A*02:03 (setting [19]) it was not below 70400 nM.
Take TPENFSSLI: the Kd with HLA-B*35:01 (setting [20]) was not below 38700 nM; with HLA-B*54:01 (setting [20]), not below 78100 nM; with HLA-B*51:01 [7] (setting [20]), 1960 nM; with HLA-B*07:02 (setting [20]), 8260 nM; in the assay with HLA-B*53:01 (setting [20]), 1320 nM.
As to VPWSKILAY, the Kd with HLA-B*35:01 (setting [11]) stood at 8.22 nM; with HLA-B*54:01 (setting [11]), 536 nM; with HLA-B*51:01 [7] (setting [11]), 90.5 nM; with HLA-B*07:02 (setting [11]), 447 nM; in the assay with HLA-B*53:01 (setting [11]), 7.08 nM.

The record behind these values is the Immune Epitope Database (IEDB).
